Measured values: US20250115889A1 (DENTERIC, published 2025)

B1: DUF-ABM213 (other)
chain: AEGSREVKRIGDGLFVTIEPANDVRANEAKVVLAADNVWGDNTGYQFLLDADHNTFGSVIPATGPLFTGTASSNLYSANFEYLIPANADPVVTTQNIIVTGQGEVVIPGGVYDYCITNPEPASGKMWIAGDGGNQPARYDDFTFEAGKKYTFTMRRAGMGDGTDMEVEDDSPASYTYTVYRDGTKIKEGLTATTFEEDGVAAGNHEYCVEVKYTAGVSPKVCKDVTVEGSNEFAPVQNLTGSSVGQKVTLKWDAPNGTPNPNPNPNPNPGT
notes: also called DUF2436 domain plus ABMs
B2: DUF (other)
chain: AEGSREVKRIGDGLFVTIEPANDVRANEAKVVLAADNVWGDNTGYQFLLDADHNTFGSVIPATGPLFTGTASSNLYSANFEYLIPANADPVVTTQNIIVTGQGEVVIPGGVYDYCITNPEPASGKMWIAGDGGNQPARYDDFTFEAGKKYTFTMRRAGMGDGTDM
notes: also called DUF2436 domain; not shown: C-terminal His tag
B3: KDAK1n-4S-AVQP (other)
chain: NTGVSFANYTAHGSETAWADPLLTTSQLKALTNKDKAEGSREVKRIGDGLFVTIEPANDVRANEAKVVLAADNVWGDNTGYQFLLDADHNTFGSVIPATGPLFTGTASSNLYSANFEYLIPANADPVVTTQNIIVTGQGEVVIPGGVYDYSITNPEPASGKMWIAGDGGNQPARYDDFTFEAGKKYTFTMRRAGMGDGTDMEVEDDSPASYTYTVYRDGTKIKEGLTATTFEEDGVAAGNHEYSVEVKYTAGVSPKVSKDVTVEGSNEFAAVQPLTGSSVGQKVTLKWDAPNGTPNPNPNPNPNPGTTLSESFENGIPASWKTIDADGDGHGWKPGNAPGIAGYNSNGSVYSESFGLGGIGVLTPDNYLITPALDLPNGG
notes: also called KDAK1n mutant
B4: rABM213 (other)
chain: ASYTYTVYRDGTKIKEGLTATTFEEDGVAAGNHEYCVEVKYTAGVSPKVCKDVTVEGSNEFAPVQNLTGSSVGQKVTLKWDAPNGTPNPNPNPNPNPGT
notes: also called recombinant protein encoding ABM2(1), ABM1(2) and ABM3
B5: rABM21-SSEYQ (other)
chain: ASYTYTVYRDGTKIKEGLTATTFEEDGVAAGNHEYCVEVKYTAGVSPKVCKDVTVEGSSEYQPVQNLTGSSVGQKVTLKWDAPNGT
notes: also called SSEYQ variant
B6: rABM21-Y > A/W > A (other)
chain: ASYTATVYRDGTKIKEGLTATTFEEDGVAAGNHEYCVEVKYTAGVSPKVCKDVTVEGSNEFAPVQNLTGSSVGQKVTLKADAPNGT
B7: rABM21-AVQN (other)
chain: ASYTYTVYRDGTKIKEGLTATTFEEDGVAAGNHEYCVEVKYTAGVSPKVCKDVTVEGSNEFAAVQNLTGSSVGQKVTLKWDAPN
B8: rABM21 (other)
chain: ASYTYTVYRDGTKIKEGLTATTFEEDGVAAGNHEYCVEVKYTAGVSPKVCKDVTVEGSNEFAPVQNLTGSSVGQKVTLKWDAPN
notes: also called recombinant ABM21; recombinant protein encoding ABM2(1) and ABM1(2)
B9: rABM21-AVQP (other)
chain: ASYTYTVYRDGTKIKEGLTATTFEEDGVAAGNHEYCVEVKYTAGVSPKVCKDVTVEGSNEFAAVQPLTGSSVGQKVTLKWDAPN
B10: rABM21-AVQA (other)
chain: ASYTYTVYRDGTKIKEGLTATTFEEDGVAAGNHEYCVEVKYTAGVSPKVCKDVTVEGSNEFAAVQALTGSSVGQKVTLKWDAPN
B11: rABM21-AVQA-2X Cys > Ser (other)
chain: ASYTYTVYRDGTKIKEGLTATTFEEDGVAAGNHEYSVEVKYTAGVSPKVSKDVTVEGSNEFAAVQALTGSSVGQKVTLKWDAPN
B12: rABM21--Y > A (other)
chain: ASYTATVYRDGTKIKEGLTATTFEEDGVAAGNHEYCVEVKYTAGVSPKVCKDVTVEGSNEFAPVQNLTGSSVGQKVTLKWDAPN
B13: KDcAK1n-4S (other)
chain: NTGVSFANYTAHGSETAWADPLLTTSQLKALTNKDKWGDNTGYQFLLDADHNTFGSVIPATGPLFTGTASSNLYSANFEYLIPANADPVVTTQNIIVTGQGEVVIPGGVYDYSITNPEPASGKMWIAGDGGNQPARYDDFTFEAGKKYTFTMRRAGMGDGTDMEVEDDSPASYTYTVYRDGTKIKEGLTATTFEEDGVAAGNHEYSVEVKYTAGVSPKVSKDVTVEGSNEFAPVQNLTGSSVGQKVTLKWDAPNGTPNPNPNPNPNPGTTLSESFENGIPASWKTIDADGDGHGWKPGNAPGIAGYNSNGSVYSESFGLGGIGVLTPDNYLITPALDLPNGG
notes: also called chimera with all four Cysteine residues mutated to Serine
B14: KDcAK1n-4S-AVQP (other)
chain: NTGVSFANYTAHGSETAWADPLLTTSQLKALTNKDKWGDNTGYQFLLDADHNTFGSVIPATGPLFTGTASSNLYSANFEYLIPANADPVVTTQNIIVTGQGEVVIPGGVYDYSITNPEPASGKMWIAGDGGNQPARYDDFTFEAGKKYTFTMRRAGMGDGTDMEVEDDSPASYTYTVYRDGTKIKEGLTATTFEEDGVAAGNHEYSVEVKYTAGVSPKVSKDVTVEGSNEFAAVQPLTGSSVGQKVTLKWDAPNGTPNPNPNPNPNPGTTLSESFENGIPASWKTIDADGDGHGWKPGNAPGIAGYNSNGSVYSESFGLGGIGVLTPDNYLITPALDLPNGG
notes: also called KDcAKIn-4S-AVQP; KDcAK1n PVQN>AVQP/4 Cys>Ser variant
B15: rABM21-2XCys > Ser (other)
chain: ASYTYTVYRDGTKIKEGLTATTFEEDGVAAGNHEYSVEVKYTAGVSPKVSKDVTVEGSNEFAPVQNLTGSSVGQKVTLKWDAPN
B16: rABM21-AVQP-2X Cys > Ser (other)
chain: ASYTYTVYRDGTKIKEGLTATTFEEDGVAAGNHEYSVEVKYTAGVSPKVSKDVTVEGSNEFAAVQPLTGSSVGQKVTLKWDAPN
notes: also called ABM21-2S-AVQP
B17: KDcAK1n (prior art chimera) (other)
chain: NTGVSFANYTAHGSETAWADPLLTTSQLKALTNKDKWGDNTGYQFLLDADHNTFGSVIPATGPLFTGTASSNLYSANFEYLIPANADPVVTTQNIIVTGQGEVVIPGGVYDYCITNPEPASGKMWIAGDGGNQPARYDDFTFEAGKKYTFTMRRAGMGDGTDMEVEDDSPASYTYTVYRDGTKIKEGLTATTFEEDGVAAGNHEYCVEVKYTAGVSPKVCKDVTVEGSNEFAPVQNLTGSSVGQKVTLKWDAPNGTPNPNPNPNPNPGTTLSESFENGIPASWKTIDADGDGHGWKPGNAPGIAGYNSNGCVYSESFGLGGIGVLTPDNYLITPALDLPNGG
notes: also called original chimera
B18: KDcAK1nK (other)
chain: NTGVSFANYTAHGSETAWADPLLTTSQLKALTNKDKWGDNTGYQFLLDADHNTFGSVIPATGPLFTGTASSNLYSANFEYLIPANADPVVTTQNIIVTGQGEVVIPGGVYDYCITNPEPASGKMWIAGDGGNQPARYDDFTFEAGKKYTFTMRRAGMGDGTDMEVEDDSPASYTYTVYRDGTKIKEGLTATTFEEDGVAAGNHEYCVEVKYTAGVSPKVCKDVTVEGSNEFAPVQNLTGSSVGQKVTLKWDAPNGTPNPNPNPNPNPGTTLSESFENGIPASWKTIDADGDGHGWKPGNAPGIAGYNSNGCVYSESFGLGGIGVLTPDNYLITPALDLPNGGNTGVSFANYTAHGSETAWADPLLTTSQLKALTNKDK
B19: KDAK1nK (other)
chain: NTGVSFANYTAHGSETAWADPLLTTSQLKALTNKDKAEGSREVKRIGDGLFVTIEPANDVRANEAKVVLAADNVWGDNTGYQFLLDADHNTFGSVIPATGPLFTGTASSNLYSANFEYLIPANADPVVTTQNIIVTGQGEVVIPGGVYDYCITNPEPASGKMWIAGDGGNQPARYDDFTFEAGKKYTFTMRRAGMGDGTDMEVEDDSPASYTYTVYRDGTKIKEGLTATTFEEDGVAAGNHEYCVEVKYTAGVSPKVCKDVTVEGSNEFAPVQNLTGSSVGQKVTLKWDAPNGTPNPNPNPNPNPGTTLSESFENGIPASWKTIDADGDGHGWKPGNAPGIAGYNSNGCVYSESFGLGGIGVLTPDNYLITPALDLPNGGNTGVSFANYTAHGSETAWADPLLTTSQLKALTNKDK
B20: KDAK1n (other)
chain: NTGVSFANYTAHGSETAWADPLLTTSQLKALTNKDKAEGSREVKRIGDGLFVTIEPANDVRANEAKVVLAADNVWGDNTGYQFLLDADHNTFGSVIPATGPLFTGTASSNLYSANFEYLIPANADPVVTTQNIIVTGQGEVVIPGGVYDYCITNPEPASGKMWIAGDGGNQPARYDDFTFEAGKKYTFTMRRAGMGDGTDMEVEDDSPASYTYTVYRDGTKIKEGLTATTFEEDGVAAGNHEYCVEVKYTAGVSPKVCKDVTVEGSNEFAPVQNLTGSSVGQKVTLKWDAPNGTPNPNPNPNPNPGTTLSESFENGIPASWKTIDADGDGHGWKPGNAPGIAGYNSNGCVYSESFGLGGIGVLTPDNYLITPALDLPNGG

Target: the molecule itself
Assay: column 'Multimer [yes/no]'; self-association
B1: binds.
B2: no binding.
B3: no binding.

Target: the molecule itself
Assay: Native PAGE without DTT; self-association (ability to form multimers)
B4: binds.
B5: binds.
B6: no binding.
B7: binds.
B8: binds.
B9: binds.
B10: binds.
B11: binds.
B12: binds.

Target: the molecule itself
Assay: native PAGE with and without DTT, self-association (multimer ladder)
B13: binds.
B14: no binding.
B15: binds.
B16: no binding.

Target: the molecule itself
Assay: native PAGE of small scale purified protein, self-association (multimers)
B17: binds.

Target: the molecule itself
Assay: native PAGE of small scale purified protein, self-association (multimer bands)
B18: binds.

Target: the molecule itself
Assay: native PAGE of small scale purified protein, self-association (multimer ladder)
B19: binds.
B20: binds.
